Source: the supplement of paper PMC10724198
± gives the standard deviation of the averaged measurements.

How the values were obtained:
Saccharomyces cerevisiae [1] = test: protein stability index of tFT-peptide fusion (C-terminal peptide) (PSI (0-1 scale)); higher = more stable (slower turnover)
Protocol: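 MPS profiling in S. cerevisiae of the tFT-X12 degron library: putative degron peptides plus stable controls, 12 aa, fused to the C-terminus of a sfGFP-mCherry timer. Cells are FACS-sorted into 8 mCherry/sfGFP bins and deep-sequenced. PSI runs from 0 (unstable) to 1 (stable). Backgrounds are wild type, das1Δ and doa10Δ at 30 °C, and wild type, das1Δ, cdc34-1 and cdc53-1 at 37 °C; 2-3 technical replicates each.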

Saccharomyces cerevisiae [2] = test: as above; details: genetic background: wild type; temperature: 30 C
[3] = genetic background: cdc34-1, temperature: 37 C
[4] = genetic background: cdc53-1, temperature: 37 C
[5] = genetic background: das1 deletion, temperature: 30 C
[6] = genetic background: das1 deletion, temperature: 37 C
[7] = genetic background: doa10 deletion, temperature: 30 C
[8] = genetic background: wild type, temperature: 30 C
[9] = genetic background: wild type, temperature: 37 C
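Note: PSI is a weighted mean of sequencing reads over stability bins, variants kept only with over 10 reads, mCherry proximal and sfGFP distal, peptide attached via GGGS linker.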

Sequence | protein stability index (Saccharomyces cerevisiae [2]) | also measured
PSLVFLPPPPPR | – | protein stability index (Saccharomyces cerevisiae [1]; [3]): 0.673 ± 0.04; protein stability index (Saccharomyces cerevisiae [1]; [4]): 0.7452 ± 0.0056; protein stability index (Saccharomyces cerevisiae [1]; [5]): 0.677 ± 0.0098; protein stability index (Saccharomyces cerevisiae [1]; [6]): 0.7475 ± 0.0016; protein stability index (Saccharomyces cerevisiae [1]; [7]): 0.681 ± 0.018; protein stability index (Saccharomyces cerevisiae [1]; [8]): 0.701 ± 0.025; protein stability index (Saccharomyces cerevisiae [1]; [9]): 0.72099 ± 0.00046
AYSVIPSLALLP | – | protein stability index (Saccharomyces cerevisiae [1]; [3]): 0.681 ± 0.062; protein stability index (Saccharomyces cerevisiae [1]; [4]): 0.741 ± 0.008; protein stability index (Saccharomyces cerevisiae [1]; [5]): 0.631 ± 0.024; protein stability index (Saccharomyces cerevisiae [1]; [6]): 0.731 ± 0.0022; protein stability index (Saccharomyces cerevisiae [1]; [7]): 0.646 ± 0.018; protein stability index (Saccharomyces cerevisiae [1]; [8]): 0.632 ± 0.01; protein stability index (Saccharomyces cerevisiae [1]; [9]): 0.706 ± 0.0094
GAVRGWGWVSFV | – | protein stability index (Saccharomyces cerevisiae [1]; [3]): 0.622 ± 0.0072; protein stability index (Saccharomyces cerevisiae [1]; [4]): 0.789 ± 0.011; protein stability index (Saccharomyces cerevisiae [1]; [5]): 0.595 ± 0.025; protein stability index (Saccharomyces cerevisiae [1]; [6]): 0.71792 ± 4.5e-05; protein stability index (Saccharomyces cerevisiae [1]; [7]): 0.357 ± 0.054; protein stability index (Saccharomyces cerevisiae [1]; [8]): 0.317 ± 0.04; protein stability index (Saccharomyces cerevisiae [1]; [9]): 0.436 ± 0.0078
TLDCKFGRGGIG | – | protein stability index (Saccharomyces cerevisiae [1]; [3]): 0.309 ± 0.015; protein stability index (Saccharomyces cerevisiae [1]; [4]): 0.423 ± 0.013; protein stability index (Saccharomyces cerevisiae [1]; [5]): 0.332 ± 0.0069; protein stability index (Saccharomyces cerevisiae [1]; [6]): 0.401 ± 0.017; protein stability index (Saccharomyces cerevisiae [1]; [7]): 0.325 ± 0.0077; protein stability index (Saccharomyces cerevisiae [1]; [8]): 0.321 ± 0.013; protein stability index (Saccharomyces cerevisiae [1]; [9]): 0.392 ± 0.0016
LPLPPPGSPPPL | – | protein stability index (Saccharomyces cerevisiae [1]; [3]): 0.653 ± 0.032; protein stability index (Saccharomyces cerevisiae [1]; [4]): 0.744 ± 0.036; protein stability index (Saccharomyces cerevisiae [1]; [5]): 0.668 ± 0.021; protein stability index (Saccharomyces cerevisiae [1]; [6]): 0.726 ± 0.0077; protein stability index (Saccharomyces cerevisiae [1]; [7]): 0.659 ± 0.014; protein stability index (Saccharomyces cerevisiae [1]; [8]): 0.682 ± 0.033; protein stability index (Saccharomyces cerevisiae [1]; [9]): 0.698 ± 0.0069
GGGGGGGDVLVW | – | protein stability index (Saccharomyces cerevisiae [1]; [3]): 0.265 ± 0.04; protein stability index (Saccharomyces cerevisiae [1]; [4]): 0.363 ± 0.036; protein stability index (Saccharomyces cerevisiae [1]; [5]): 0.265 ± 0.037; protein stability index (Saccharomyces cerevisiae [1]; [6]): 0.426 ± 0.0099; protein stability index (Saccharomyces cerevisiae [1]; [7]): 0.202 ± 0.022; protein stability index (Saccharomyces cerevisiae [1]; [8]): 0.244 ± 0.034; protein stability index (Saccharomyces cerevisiae [1]; [9]): 0.392 ± 0.0048
RDTTQRRRKTAA | – | protein stability index (Saccharomyces cerevisiae [1]; [3]): 0.657 ± 0.039; protein stability index (Saccharomyces cerevisiae [1]; [4]): 0.662 ± 0.026; protein stability index (Saccharomyces cerevisiae [1]; [5]): 0.6608 ± 0.0048; protein stability index (Saccharomyces cerevisiae [1]; [6]): 0.6583 ± 0.005; protein stability index (Saccharomyces cerevisiae [1]; [7]): 0.443 ± 0.0084; protein stability index (Saccharomyces cerevisiae [1]; [8]): 0.448 ± 0.012; protein stability index (Saccharomyces cerevisiae [1]; [9]): 0.60824 ± 0.00016
KKKKKKKKKPEK | 0.708 ± 0.022 | –
GSRVRGVMWSFL | 0.771 ± 0.067 | –
WVGRGGAVENKV | 0.718 ± 0.03 | –
LPPLGAPQPPPP | 0.731 ± 0.021 | –
SVAGDEGDRLFR | 0.686 ± 0.022 | –
FFPITAWSGWDG | 0.669 ± 0.093 | –
AGLWWGGCAAGA | 0.804 ± 0.037 | –
HLPPFSGIHLTP | 0.719 ± 0.011 | –
DQNNSQIRHEQP | 0.575 ± 0.03 | –
LRGGSRWVSGGY | 0.636 ± 0.026 | –
STFASLRPLFFS | 0.6128 ± 0.0012 | –
LTPAPSSCLRSP | 0.6857 ± 0.005 | –
FPPPRYPRRPTA | 0.682 ± 0.018 | –
ASLAACSLTNSV | 0.697 ± 0.053 | –
EPPELSISALGF | 0.6865 ± 0.0021 | –
ERWRVYERYARG | 0.692 ± 0.058 | –
LPPPAAPPPALA | 0.691 ± 0.032 | –

Sequence | protein stability index (Saccharomyces cerevisiae [2]) | also measured
LSALGGVLWWWC | 0.616 ± 0.026 | –
GGWCGSGGVVRG | 0.675 ± 0.12 | –
RPPFPPPPLPPP | 0.656 ± 0.031 | –
GGGGLGTAVVGV | 0.6748 ± 0.0024 | –
WCLDVGSVSWPF | 0.79432 ± 0.0005 | –
PPPLLPPLDAPS | 0.721 ± 0.083 | –
EVLQGNHHPRPE | 0.716 ± 0.019 | –
AQPAPAPALADV | 0.667 ± 0.039 | –
RDAGPSKERNRR | 0.675 ± 0.039 | –
RSSSLRRGIGQR | 0.688 ± 0.071 | –
EGGRFTALSSTS | 0.689 ± 0.039 | –
TIQPSVTNPTLN | 0.686 ± 0.04 | –
WCNLSFEDNYVT | 0.658 ± 0.018 | –
ISMSDFRLFAIW | 0.6646 ± 0.0047 | –
SPPPNPRRPVPL | 0.6916 ± 0.0023 | –
SFGLRCPASRGS | 0.648 ± 0.052 | –
YMCPSFCLPLFP | 0.731 ± 0.1 | –
ESRARCGEQAIY | 0.641 ± 0.066 | –
SGPAVLPTFVSP | 0.65 ± 0.077 | –
RRINRRGPRMME | 0.62 ± 0.015 | –
LRKSSIQRQKKR | 0.653 ± 0.034 | –
LLPPPPPPPFSD | 0.653 ± 0.079 | –
KKIDQAKETSLS | 0.68 ± 0.011 | –
LERSSHRTEFLS | 0.587 ± 0.032 | –

Sequence | protein stability index (Saccharomyces cerevisiae [2]) | also measured
YISEKKKIEERK | 0.69 ± 0.032 | –
FCVFFSGLCCWV | 0.55 ± 0.022 | –
VRSGKGKNRWNK | 0.719 ± 0.024 | –
QARSLVRSLCYP | 0.677 ± 0.0082 | –
IWGLDGKSISID | 0.751 ± 0.061 | –
LPPPPPPPPLLP | 0.696 ± 0.0022 | –
QKNMVKKVENTR | 0.7637 ± 0.0067 | –
APKVYVAAYTPL | 0.676 ± 0.025 | –
SPPSLPPLPPRF | 0.702 ± 0.016 | –
YSKVGCRHSYHT | 0.669 ± 0.017 | –
APLFPPPPARSL | – | protein stability index (Saccharomyces cerevisiae [1]; [3]): 0.652 ± 0.034; protein stability index (Saccharomyces cerevisiae [1]; [4]): 0.7023 ± 0.0017; protein stability index (Saccharomyces cerevisiae [1]; [5]): 0.661 ± 0.014; protein stability index (Saccharomyces cerevisiae [1]; [6]): 0.704 ± 0.011; protein stability index (Saccharomyces cerevisiae [1]; [7]): 0.692 ± 0.017; protein stability index (Saccharomyces cerevisiae [1]; [8]): 0.677 ± 0.03; protein stability index (Saccharomyces cerevisiae [1]; [9]): 0.688 ± 0.041
ARTADPAATPST | 0.687 ± 0.02 | –
HLSNSCLHGVSG | 0.6484 ± 0.00096 | –
VSPTGRRGYGRS | 0.66754 ± 0.00015 | –
HRTSSCESSPLA | 0.737 ± 0.076 | –
PLPPPPTPPVPV | 0.672 ± 0.015 | –
PPCGPPGPPIPP | 0.592 ± 0.026 | –
DRLGDCRKPRPF | 0.657 ± 0.099 | –
GRKQMKINDWNI | 0.636 ± 0.077 | –
TIKNKKRKPKKK | 0.702 ± 0.044 | –
SRVWACCGVIGV | 0.667 ± 0.067 | –
SFPSLLRPPHFS | 0.706 ± 0.041 | –
